The data set can be described thus: yeast display, Sf9 membrane polyspecificity reagent, FACS + sequencing; frameworks hold sequencing errors. A digest of the protocol: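 Sorting gates, low and high (top ~1%), were placed on anti-HA fluorescence to track expression and on streptavidin fluorescence to track reagent binding. A clone's polyreactivity label is taken from the gate it came out of. The reagent was 10% biotinylated, detergent-solubilized Sf9 membrane, applied for 1 hour at 4 °C to galactose-induced yeast display cells.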
Turning to “QVQLVESGGGLVQAGGSLRLSCAASGSTFRYYGMGWYRQAPGKERELVADITSGGTTDYADSVKGRFTISRDNAKNTVYLQMNSLKPEDTAVYYCAAGRWYKRQSTWGFGLDHDYWGQGTQVTVSS”, the “polyreactivity (PSR sort gate)” value is listed as “low polyreactivity”.

For “QVQLVESGGGLVQAGGSLRLSCAASGSTFRYYTMGWYRQAPGKEREFVASISRSGGSTYYADSVKGRFTISRDNAKNTVYLQMNSLKPEDTAVYYCNAVKGSYSRSQGNEYWGQGTQVTVSS”, the “polyreactivity (PSR sort gate)” value is given as “high polyreactivity”.

For the sequence “QVQLVESGGGLVQAGGSLRLSCAASGSTFRYYTMGWYRQAPGKERELVAAISWSGGITYYADSVKGRFTISRDNAKNTVYLQMNSLKPEDTAVYYCAADWWAWRAYYYWGQGTQVTVSS”, the “polyreactivity (PSR sort gate)” value is reported as “high polyreactivity”.

As to “QVQLVESGGGLVQAGGSLRLSCAASGSTFRYYTMGWYRQAPGKERELVAAITYSGGSTYYADSVKGRFTISRDNAKNTVYLQMNSLKPEDTAVYYCAKRWSQPKYDYWGQGTQVTVSS”, the “polyreactivity (PSR sort gate)” value is given as “high polyreactivity”.

For “QVQLVESGGGLVQAGGSLRLSCAASGSTFRYYTMGWYRQAPGKERELVASISRSGSTSYADSVKGRFTISRDNAKNTVYLLMNSLKPEDTAVYYCARESFFGAYAGYDYWGQGTQVTVSS”, the “polyreactivity (PSR sort gate)” value is “low polyreactivity”.

As for “QVQLVESGGGLVQAGGSLRLSCAASGSTFSAKTIGGYRQAPGKEMELVAGITITGDTYYADSVKGRFTISRDNAKNTVYLQMNSLKPEDTAVYYCAAAWYEPATQTGYFEFDYWGQGTQVTVSS”, the “polyreactivity (PSR sort gate)” value is “low polyreactivity”.

With “QVQLVESGGGLVQAGGSLRLSCAASGSTFSANAMGWYRQAPGKERELVAAITYRGGNTYYADSVKGRFTISRDNAKNTVYLQMNSLKPEETAVYYCNRDLRVRYRRLKYGYWGQGTQVTVSS”, the “polyreactivity (PSR sort gate)” value is recorded as “low polyreactivity”.

Regarding “QVQLVESGGGLVQAGGSLRLSCAASGSTFSANTMGWYRQAPGKERELVAAISSSGVGTRYADSVKGRFTISRDNAKNTVYLQMNSLKPEDTSVFYCAADYRPTVITRNDYWGQGTQVTVSS”, the “polyreactivity (PSR sort gate)” value is recorded as “low polyreactivity”.

With “QVQLVESGGGLVQAGGSLRLSCAASGSTFSAYAMGWYRQAPGKERELVAAISRSGTRTYYADSVKGRFTISRDNAKNNVYLQMNSLKPEDTAVYYCARYAGRLSYRYEYWGQGTQVTVSS”, the “polyreactivity (PSR sort gate)” value was “high polyreactivity”.

For the sequence “QVQLVESGGGLVQAGGSLRLSCAASGSTFSAYTMGWYRQAPGKERELVARITNGGSTYYAESVKGRFTISRDNAKNTVYLQMNSLKPEDTAVYYCAAQLGWWGSGYWGQGTQVTLSS”, the “polyreactivity (PSR sort gate)” value is “high polyreactivity”.

Consider “QVQLVESGGGLVQAGGSLRLSCAASGSTFSDYTMGWFRQAPGKERELVAAITTIGGSTYYADSVKGRFTISRDNAKNTVYLQMNSLKPEDTAVYYCAASYYYPLEYYYWGQGTQVTVSS”, for which the “polyreactivity (PSR sort gate)” value is “low polyreactivity”.

Turning to “QVQLVESGGGLVQAGGSLRLSCAASGSTFSDYTMGWSRQAPGKDRVLVAALNAGGSTNYADSVKGRFTISRDNAKNTVYLQMNSLKPEDTAVYYSNADSSYLANGYWDPDYTPYDSWGQGTQVTVSS”, the “polyreactivity (PSR sort gate)” value was “low polyreactivity”.

In the case of “QVQLVESGGGLVQAGGSLRLSCAASGSTFSEYVMGWYRQAPGKERELVAAIRSNGGSTYYADSVKGRFTISRDNAKNTVYLQMNSLKPEDTAVYYCNRVYSRRTYNSPLYDYWGQGTQVTVSS”, the “polyreactivity (PSR sort gate)” value was “high polyreactivity”.

Take “QVQLVESGGGLVQAGGSLRLSCAASGSTFSFYAMGRYRQAPGKERELVAAISSSGDGTYYADSVKGRFTISRDNAKKTVYLQMNSLKPEDTAVYYCATGSPSGDEWGMDYWGQGTQVTVSS”: the “polyreactivity (PSR sort gate)” value is reported as “low polyreactivity”.

As to “QVQLVESGGGLVQAGGSLRLSCAASGSTFSGYAMGWYRHAPGKERELVAAISRRGTSTYYADSVKGRFTISRDNAKNTVYLQMNSLKPEDTAVYYCAARPSGYVIGGYGYWGQGTQVTVSS”, the “polyreactivity (PSR sort gate)” value is given as “high polyreactivity”.

Regarding “QVQLVESGGGLVQAGGSLRLSCAASGSTFSGYAMGWYRQAPGKERDLVAAITKSGGRTYYADSVKGRFTISRDNAQNTVYLQMNSLKQEDTAVYYCAKAYPGTYREYDYWGQGTQVTVSS”, the “polyreactivity (PSR sort gate)” value is listed as “high polyreactivity”.

With “QVQLVESGGGLVQAGGSLRLSCAASGSTFSGYAMGWYRQAPGKERELVAAITSGGITNYADSVKGRFTISLDNAKNTLYLQMNSLKPEDTAVYYCAKSVSGIGVGYDYWGQGTQVTVSS”, the “polyreactivity (PSR sort gate)” value is recorded as “low polyreactivity”.

Regarding “QVQLVESGGGLVQAGGSLRLSCAASGSTFSGYAMGWYRQAPGKERELVGAISSSGGRTNYADSVKGRFTISRDNAKNTVYLQMNSLKPEDTAVYYCASVGPRTEYSGYRYYYWGQGTQVTVSS”, the “polyreactivity (PSR sort gate)” value is “high polyreactivity”.

As to “QVQLVESGGGLVQAGGSLRLSCAASGSTFSGYAMRWYRQAPGKERELVATITRRGGNTYDADSVKGGFTISRDNAKNTVYLQMNSLKPEDTAVYYCAKEGRVQSPYHYWGQGTQVTVSS”, the “polyreactivity (PSR sort gate)” value was “low polyreactivity”.

On to “QVQLVESGGGLVQAGGSLRLSCAASGSTFSHNAMGWYRQAPGKERELVAAISWSGGRTYADSVKGRFTISRDNAKNTVYLQMNSVKPDDTAVYYCNKVSYPSTSSSWFDYWGQGTQVTVSS”, for which the “polyreactivity (PSR sort gate)” value is “low polyreactivity”.

Turning to “QVQLVESGGGLVQAGGSLRLSCAASGSTFSIYAMGWSRQAPGKERELVAAITGTVGSTYYADSVKGRFTISRDNAKNTVYLQMNSLNPEDTAVYYCAARQVNYDYDYWGQGTQVTVSS”, the “polyreactivity (PSR sort gate)” value was “low polyreactivity”.

As for “QVQLVESGGGLVQAGGSLRLSCAASGSTFSIYARGWYRPAPGKERELVAAIRWSGGRTYYADSVKGRFTISRDNAKNTVYLQMNSLKPEDTAVYYCAAESTGSGYDYWGQGTQVTVSS”, the “polyreactivity (PSR sort gate)” value is on record as “high polyreactivity”.

Turning to “QVQLVESGGGLVQAGGSLRLSCAASGSTFSKNGMGWYRQAPGKERELVAAITVNGGSTSYADSVKGRFTISRDNAKNTVYLQMNSLKPEDTAVYYCARRRYSKYYYWGQGTQVTVSS”, the “polyreactivity (PSR sort gate)” value was “high polyreactivity”.

Turning to “QVQLVESGGGLVQAGGSLRLSCAASGSTFSKYAMGWYRPAPGKERELVAAISSRGGSTYYADSVKGRFTISRDNAKNTVYLQMNSLKPEDTAVYYCATYYVYKLYYWGQGTQVTVSS”, the “polyreactivity (PSR sort gate)” value was “high polyreactivity”.

For the sequence “QVQLVESGGGLVQAGGSLRLSCAASGSTFSLNAMGWYRQAPGKERELVAAITRSGGSTYYADSVKGRFTISRDNAKNTVYLQMNSLKPEDTAVYYCAALPRWSHRYDDWGQGTQVTVSS”, the “polyreactivity (PSR sort gate)” value was “high polyreactivity”.

For the sequence “QVQLVESGGGLVQAGGSLRLSCAASGSTFSLYMGWYRQAPGKERELVAAITYSGGRTYYADSVKGRFTITLDNAKNTFYLQMNSVNPEDTAVYYCATVFNDLTVYEDWSRFDYWGQGTQVTVSS”, the “polyreactivity (PSR sort gate)” value is “low polyreactivity”.

As for “QVQLVESGGGLVQAGGSLRLSCAASGSTFSNNAMGWYRQAPGKERELVAAITRRGTSTYYADSVKGRFTISRDNAKNTVYLQMISLKPEDTAVYYCAAVYKLRHKRPSYGSWGQGTQVTVSS”, the “polyreactivity (PSR sort gate)” value is on record as “high polyreactivity”.

With “QVQLVESGGGLVQAGGSLRLSCAASGSTFSNNAMGWYRQAPGKERELVATISQSGGSTYYADSVKGRFTISRDNAKNTVYLQMNSLKPEDTAVYYCNAESYLTGWWYDYWGQGTQVTVSS”, the “polyreactivity (PSR sort gate)” value was “high polyreactivity”.

“QVQLVESGGGLVQAGGSLRLSCAASGSTFSNYAMGWYRQAPGKERELVAGIDWSGGSTYYADSVKGRFTISRDNAKNTVYLQMNSLKPEDTAVYYCAKRVWYHGRKLRGYYWGQGTQVTVSS”: the “polyreactivity (PSR sort gate)” value is reported as “low polyreactivity”.

Regarding “QVQLVESGGGLVQAGGSLRLSCAASGSTFSPNDMGWYRQAPGKERELVADNSNYADSVKGRFTISRDNAKNTVYLQMNSLKPEDTAVYYCAAEWRGDRYRLYVVSWWYDYWGQGTQVTVSS”, the “polyreactivity (PSR sort gate)” value is on record as “low polyreactivity”.

The values are drawn from the nanobody polyreactivity screen of Harvey et al. (2022).
